# Source: article PMC10751915
# Read-outs that look alike come from different tables or passages of the source.
# What was measured:
# [1] = target: FcRn (UniProt P55899)
# [2] = target: FCGR3A (176Val/V158) (CD16a) (UniProt P08637)
# [3] = target: FCGR3A (176Phe/F158) (CD16a) (UniProt P08637)
# [4] = target: FCGR2A (167H) (CD32a) (UniProt P12318)
# [5] = target: FCGR2A (167R) (CD32a) (UniProt P12318)
# [6] = target: FCGR1 (CD64) (UniProt P12314)
# [7] = target: FCGR2A (167R) (CD32a) (UniProt P12318); remark: listed apart in the source
# [8] = target: FCGR3A (176Val/V158) (CD16a) (UniProt P08637); remark: listed apart in the source
# [9] = target: FCGR2A (167H) (CD32a) (UniProt P12318); remark: listed apart in the source
# [10] = target: FCGR1 (CD64) (UniProt P12314); remark: listed apart in the source
# [11] = target: FCGR3A (176Phe/F158) (CD16a) (UniProt P08637); remark: listed apart in the source
# [12] = target: FcRn (UniProt P55899); remark: listed apart in the source
# Chain of UniProt P55899 (P55899 24-297): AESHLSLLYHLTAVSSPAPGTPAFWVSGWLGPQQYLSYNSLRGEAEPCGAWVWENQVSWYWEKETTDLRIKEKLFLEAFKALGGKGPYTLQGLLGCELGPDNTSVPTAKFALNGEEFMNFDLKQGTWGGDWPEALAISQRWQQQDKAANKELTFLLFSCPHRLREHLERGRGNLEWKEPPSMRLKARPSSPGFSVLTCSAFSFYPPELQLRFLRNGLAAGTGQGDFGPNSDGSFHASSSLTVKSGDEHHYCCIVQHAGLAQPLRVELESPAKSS
# Chain of UniProt P12314 (P12314 16-292): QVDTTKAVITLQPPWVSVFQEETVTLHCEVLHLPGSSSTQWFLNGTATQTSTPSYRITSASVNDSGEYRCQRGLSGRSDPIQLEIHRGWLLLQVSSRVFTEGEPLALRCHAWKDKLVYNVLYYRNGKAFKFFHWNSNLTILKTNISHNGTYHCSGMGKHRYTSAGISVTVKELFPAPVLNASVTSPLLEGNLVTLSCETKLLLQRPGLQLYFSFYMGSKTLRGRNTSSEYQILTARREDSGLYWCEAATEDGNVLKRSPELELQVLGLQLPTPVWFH
IC50 [1] [nM],IC50 [2] [nM],IC50 [3] [nM],IC50 [4] [nM],IC50 [5] [nM],IC50 [6] [nM],IC50 [7] [nM],IC50 [8] [nM],IC50 [9] [nM],IC50 [10] [nM],IC50 [11] [nM],IC50 [12] [nM],Substance
5.2,95.1,53.3,29.1,67.3,1.59,–,–,–,–,–,–,"KVA12.1 (WT, hIgG1) (from UniProt P01857)"
–,–,–,–,–,–,286,505,137,6,385,0.97,"KVA12123 (YTE, hIgG1) (from UniProt P01857)"
